In assay [1] the target is HLA-DR molecules on the donors' cells (locus; alleles not stated). Description: cell-based or functional assay.
Assay [2] has as its target T1, HLA DP molecule DPB1*0401 (human).
T1 chain 1: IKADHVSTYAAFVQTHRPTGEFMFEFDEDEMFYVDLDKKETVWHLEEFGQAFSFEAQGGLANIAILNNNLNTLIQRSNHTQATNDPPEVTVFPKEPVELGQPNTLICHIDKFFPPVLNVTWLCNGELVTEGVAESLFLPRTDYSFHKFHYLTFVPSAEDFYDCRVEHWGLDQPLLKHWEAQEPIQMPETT
T1 chain 2: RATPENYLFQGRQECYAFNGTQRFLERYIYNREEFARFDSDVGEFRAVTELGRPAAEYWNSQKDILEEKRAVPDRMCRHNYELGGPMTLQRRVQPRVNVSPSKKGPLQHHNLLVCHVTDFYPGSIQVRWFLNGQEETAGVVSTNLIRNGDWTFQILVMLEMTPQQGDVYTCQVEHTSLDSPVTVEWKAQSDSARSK
Description: inhibition of radiolabeled peptide binding to purified HLA DP.

For assay [3], the target named is T2, HLA-DR DRB1*0301 (human).
T2 chain 1: not shown
T2 chain 2: not shown
The experiment in a line: inhibition of radiolabeled peptide binding to purified HLA class II. As to conditions: remark: other sources report otherwise.

Assay [4] addresses T3, HLA DP molecule DPB1*0201 (human).
T3 chain 1: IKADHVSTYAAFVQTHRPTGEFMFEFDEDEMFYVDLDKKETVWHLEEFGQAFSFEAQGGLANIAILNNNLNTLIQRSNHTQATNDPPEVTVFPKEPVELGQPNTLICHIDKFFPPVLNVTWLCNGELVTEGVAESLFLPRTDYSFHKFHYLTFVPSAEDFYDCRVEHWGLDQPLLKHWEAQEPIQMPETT
T3 chain 2: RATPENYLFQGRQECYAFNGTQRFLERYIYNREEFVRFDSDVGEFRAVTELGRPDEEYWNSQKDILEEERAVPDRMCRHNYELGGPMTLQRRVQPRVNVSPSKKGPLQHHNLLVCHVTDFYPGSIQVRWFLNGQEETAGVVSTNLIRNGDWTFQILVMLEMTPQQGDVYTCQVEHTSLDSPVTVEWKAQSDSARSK
The experiment in a line: competition vs radiolabeled peptide, purified HLA-DP.

Assay [5] addresses T1, HLA DP molecule DPB1*0401 (human). Described as above.
Assay [6] addresses HLA DQ molecule DQB1*0602 (human). The experiment in a line: inhibition of radiolabeled peptide binding to purified HLA class II.
Assay [7] addresses HLA DQ molecule DQB1*0202 (human). The assay is described as above.
The target in assay [8] is HLA DQ molecule DQB1*0503 (human). The assay is described as above.
For assay [9], the target named is T4, HLA DQ molecule DQB1*0402 (human), P01909.
T4 chain 1: not shown
T4 chain 2: not shown
The assay is described as above.

The target in assay [10] is HLA DQ molecule DQB1*0502 (human). Described as above.
Assay [11] deals with T5, HLA-DQ molecule DQB1*0501 (human).
T5 chain 1: not shown
T5 chain 2: not shown
Description: competition: inhibition of radiolabeled peptide binding to purified HLA.

From US20150004189A1 come the findings set out here.

For the molecule DGVWEIKSDKPLKGPFNFRF (peptide, UniProt P14947 51-70, looked up) [Lol p 2 (51-70) epitope region, Rye Grass], the Region restriction(s) DR (ELISPOT response inhibited by locus-specific mAb) in assay [1] came to 3 donors.
The molecule VADAYITLVTLPKSS (modifications not checked) [Alt a 1 peptide, position 143 (Peptide ID 3324.0016)] had an IC50 in assay [2] of 2.5 µM.
Consider IASLFAAAGLAAAAP (modifications not checked) [Alt a 1 peptide, position 6, Peptide ID 3324.0015], for which, in [3], the IC50 stood at 32.1 µM.
In [1], GSDEKNLALSIKYNKEGDSM (peptide, UniProt Q41183 11-30, looked up) [Dac g 2 (11-30) epitope region, Orchard Grass] had a Region restriction(s) DR (ELISPOT response inhibited by locus-specific mAb) of 1 donors.
ITYVATATLPNYCRA (modifications not checked) [Alt a 1 peptide, position 116 (Peptide ID 3324.0014)]: the IC50 in assay [2] worked out at 2.99 µM.
On to LDLAVNAAVDAGIHF (modifications not checked) [Pen ch 18 peptide, position 291, … (Peptide ID 3324.1331)], for which the concentration for half-maximal inhibition (IC50) in assay [4] was found to be 5.05 µM; in assay [5], 9.18 µM.
The molecule KVSDDITYVATATLP (modifications not checked) [Alt a 1 peptide, position 111 (Peptide ID 3324.0013)] showed an IC50 in assay [2] of 1.61 µM.
LDLAVNAAVDAGIHF (modifications not checked) [Pen ch 18 (291-305) peptide …, Peptide ID 3324.1331]: the IC50 was 0.48 µM in [6] and 0.361 µM in assay [7].
In the case of GIFLSVAAGNEAENA (modifications not checked) [Pen ch 13 (271-285) peptide …, Peptide ID 3324.1303], the half-inhibitory concentration (IC50) in [8] turned out to be 50 µM; in assay [9], 0.102 µM; in assay [10], 50 µM.
For the molecule AAAGLAAAAPLESRQ (modifications not checked) [Alt a 1 peptide, position 11, Peptide ID 3324.0017], in [11], the half-inhibitory concentration (IC50) stood at 50 µM.
